US12459997B2, “Compounds and methods targeting interleukin-19” (Eli Lilly and Company, priority 2018, dated 2025)

Legend:
Ps0 patients = assay: Ps0 study in anti-IL-23 treatment groups: serum IL-19 and PASI; assay type: in vivo, human
From the text: According to an exemplified embodiment, a sandwich ELISA assay for the sensitive detection of IL-19 is provided herein. According to an exemplified embodiment, a first IL-19 antibody (selected from Table 1, 2 or 3) is utilized as an IL-19 capture antibody and a second IL-19 antibody (selected from Table 1, 2 or 3) is utilized as an IL-19 reporter antibody. […] According to some embodiments, one milligram of the first IL-19 antibody (the capture antibody) is biotinylated using Pierce biotinylation kit (Cat #) and one milligram of the second IL-19 antibody (the reporter antibody) is labeled with ruthenium using MesoScale Discovery (MSD) kit for electrochemiluminescent (ECL) detection. According to such embodiment, labeled antibodies are evaluated using MALDI-TOF to ensure suitable labeling, and then diluted in 50% glycerol and stored at −20° C. prior to use.
Streptavidin-coated 96-well MSD plates are washed three times with TBST (Tris buffered saline containing 10 mmol/L Tris pH 7.40, 150 mmol/L NaCl with 1 mL Tween 20/L) and then blocked with TBS-T plus 1% BSA for 1 hour at room temperature. Plates are again washed and wells are then incubated with biotinylated IL-19 capture antibody (1 mg/L) for 1 hour. Thereafter, plates are again washed prior to patient sample testing.
During patient sample testing, a standard curve is generated using 50 μL of recombinant human IL-19 control standard (serially diluted IL-19 recombinant protein ranging from 100-0.0001 ng/L, and including a zero blank, in assay buffer of 50 mmol/L HEPES, pH 7.40, 150 mmol/L NaCl, 10 mL/L Triton X-100, 5 mmol/L EDTA, and 5 mmol/L EGTA). […] Patient samples (which, according to the present invention, may include blood, serum or plasma) are diluted 1:4 in assay buffer and added to respective wells. The plate is incubated overnight at 4° C. Following incubation, wells are aspirated and washed 3 times with TBST. Thereafter, 50 μL of ruthenium-labeled IL-19 detection antibody (0.5 mg/L) is added to the wells for a 1-hour incubation at room temperature. Following incubation, wells are aspirated and washed 3 times with TBST. Thereafter, 150 μl of 2×MSD read buffer is added. Ruthenium electrochemiluminescence in the wells is detected using a MSD Sector 6000 plate reader. Data is analyzed and IL-19 MSD immunoassay calibration curve fitting is performed using MesoScale Discovery software. SAS® software version 9.4 (PROC MIXED) is used for assessing treatment effects on IL-19 levels using a mixed effects model with an unstructured covariance matrix and log10 transformed IL-19 concentrations (SAS. Version 9.4 for UNIX; SAS Institute Inc.: Cary, N.C., 2016). Statistical analysis is generated with the ggplot and pROC packages using R version 3.3.3 statistical computing environment (www.R-project.org, Vienna, Austria, 2017).
A study of IL-19 levels, in serum of Ps0 patients treated with a therapeutic antibody targeting IL-23, mirikizumab, is performed. […] Administration of each treatment group, as a single subcutaneous dose, occurs at day 0. […] IL-19 levels are also assessed for prognostic value with PASI improvement between visits 2 and 12. Serum IL-19 concentration levels are presented in Table 14; a comparative of serum levels at week 8 is presented in Table 15; and prognostic values at week 8 showing correlations of IL-19 serum levels and PASI in psoriasis patients (21 ng/L, indicates the upper limit of the normal range of IL-19 in healthy subjects) are presented in Table 16.

[1] = target: T1, human IL-19 / human IL-20R beta Fc-fusion protein (Homo sapiens, UniProt Q9UHD0); assay: BLI in vitro neutralization: IL-19 captured by antibody, then incubated with IL-20R beta Fc; conditions: block of IL-19 binding to soluble receptor
T1 sequence (Q9UHD0 25-177): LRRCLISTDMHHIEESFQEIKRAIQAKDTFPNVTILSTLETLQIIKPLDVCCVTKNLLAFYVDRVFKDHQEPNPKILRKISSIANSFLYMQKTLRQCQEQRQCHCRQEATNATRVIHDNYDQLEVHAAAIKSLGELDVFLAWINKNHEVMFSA
From the text: Alternatively, a biophysical assay such as bio-layer interferometry (BLI) may be used for assessing neutralization of IL-19 by antibodies of the present invention. Binding between a ligand immobilized on the biosensor tip surface and an analyte in solution produces an increase in optical thickness at the biosensor tip, which results in a wavelength shift (expressed in nm). According to such assay, the IL-19 receptor (i.e., […]) is expressed in a membrane-free manner (such as with an Fc-fusion e.g. IL20Rbeta Fc chimera protein from R&D Systems catalog 1788-IR-050). […] The immobilized antibodies are then incubated with recombinant human IL-19 protein diluted to 100 nM using HBS-EP+ running buffer (GE Healthcare, 10 mM Hepes pH7.4+150 mM NaCl+3 mM EDTA+0.05% surfactant P20) for 240-300 secs. The human IL-19, after binding to the anti-IL-19 antibody, is assessed by incubation with human IL-20R beta Fc-fusion protein for 240-300 secs. The ability of the antibody to block or neutralize binding of the IL-19 ligand to the soluble receptor is observed as a minimal (<0.025 nm) increase in the wavelength during this step of the assay.

B1: mirikizumab (antibody, chains of the INN, looked up, V domains shown)
VH: QVQLVQSGAEVKKPGSSVKVSCKASGYKFTRYVMHWVRQAPGQGLEWMGYINPYNDGTNYNEKFKGRVTITADKSTSTAYMELSSLRSEDTAVYYCARNWDTGLWGQGTTVTVSS
VL: DIQMTQSPSSLSASVGDRVTITCKASDHILKFLTWYQQKPGKAPKLLIYGATSLETGVPSRFSGSGSGTDFTLTISSLQPEDFATYYCQMYWSTPFTFGGGTKVEIK
notes: therapeutic antibody targeting IL-23
IL-19 (geometric mean) serum levels (Ps0 patients; 5 mg single subcutaneous dose, Day 1 (baseline)): 16.2 pg/mL
IL-19 (geometric mean) serum levels (Ps0 patients; 5 mg single subcutaneous dose, Day 15): 13.9 pg/mL
IL-19 (geometric mean) serum levels (Ps0 patients; 5 mg single subcutaneous dose, Day 29): 10.4 pg/mL
IL-19 (geometric mean) serum levels (Ps0 patients; 5 mg single subcutaneous dose, Day 57): 13.2 pg/mL
IL-19 (geometric mean) serum levels (Ps0 patients; 5 mg single subcutaneous dose, Day 71): 14.5 pg/mL
IL-19 (geometric mean) serum levels (Ps0 patients; 20 mg single subcutaneous dose, Day 1 (baseline)): 37.2 pg/mL
IL-19 (geometric mean) serum levels (Ps0 patients; 20 mg single subcutaneous dose, Day 15): 27.2 pg/mL
IL-19 (geometric mean) serum levels (Ps0 patients; 20 mg single subcutaneous dose, Day 29): 25.4 pg/mL
IL-19 (geometric mean) serum levels (Ps0 patients; 20 mg single subcutaneous dose, Day 57): 33.5 pg/mL
IL-19 (geometric mean) serum levels (Ps0 patients; 20 mg single subcutaneous dose, Day 71): 28.4 pg/mL
IL-19 (geometric mean) serum levels (Ps0 patients; 60 mg single subcutaneous dose, Day 1 (baseline)): 49.8 pg/mL
IL-19 (geometric mean) serum levels (Ps0 patients; 60 mg single subcutaneous dose, Day 15): 9.0 pg/mL
IL-19 (geometric mean) serum levels (Ps0 patients; 60 mg single subcutaneous dose, Day 29): 10.8 pg/mL
IL-19 (geometric mean) serum levels (Ps0 patients; 60 mg single subcutaneous dose, Day 57): 11.9 pg/mL
IL-19 (geometric mean) serum levels (Ps0 patients; 60 mg single subcutaneous dose, Day 71): 10.9 pg/mL
IL-19 (geometric mean) serum levels (Ps0 patients; 120 mg single subcutaneous dose, Day 1 (baseline)): 52.4 pg/mL
IL-19 (geometric mean) serum levels (Ps0 patients; 120 mg single subcutaneous dose, Day 15): 26.6 pg/mL
IL-19 (geometric mean) serum levels (Ps0 patients; 120 mg single subcutaneous dose, Day 29): 25.2 pg/mL
IL-19 (geometric mean) serum levels (Ps0 patients; 120 mg single subcutaneous dose, Day 57): 22.2 pg/mL
IL-19 (geometric mean) serum levels (Ps0 patients; 120 mg single subcutaneous dose, Day 71): 18.2 pg/mL
IL-19 (geometric mean) serum levels (Ps0 patients; 200 mg single subcutaneous dose, Day 1 (baseline)): 69.6 pg/mL
IL-19 (geometric mean) serum levels (Ps0 patients; 200 mg single subcutaneous dose, Day 15): 36.0 pg/mL
IL-19 (geometric mean) serum levels (Ps0 patients; 200 mg single subcutaneous dose, Day 29): 23.3 pg/mL
IL-19 (geometric mean) serum levels (Ps0 patients; 200 mg single subcutaneous dose, Day 57): 21.9 pg/mL
IL-19 (geometric mean) serum levels (Ps0 patients; 200 mg single subcutaneous dose, Day 71): 22.5 pg/mL
IL-19 (geometric mean) serum levels (Ps0 patients; 300 mg, Week 0 (Baseline)): 106.5 pg/mL
IL-19 (geometric mean) serum levels (Ps0 patients; 300 mg, Week 8 (End of induction)): 18.2 pg/mL
% of patients with serum IL-19 concentration ≤ 21 pg/mL (Ps0 patients; 300 mg, week 8): 58.3% (28/48)
% patients with serum IL-19 concentration ≤ 21 pg/mL achieving at least PASI 75 (Ps0 patients; 300 mg, week 8): 71.4% (20/28)
% patients with serum IL-19 concentration ≤ 21 pg/mL not achieving at least PASI 75 (Ps0 patients; 300 mg, week 8): 28.6% (8/28)
IL-19 (geometric mean) serum levels (Ps0 patients; 350 mg single subcutaneous dose, Day 1 (baseline)): 58.4 pg/mL
IL-19 (geometric mean) serum levels (Ps0 patients; 350 mg single subcutaneous dose, Day 15): 35.2 pg/mL
IL-19 (geometric mean) serum levels (Ps0 patients; 350 mg single subcutaneous dose, Day 29): 22.4 pg/mL
IL-19 (geometric mean) serum levels (Ps0 patients; 350 mg single subcutaneous dose, Day 57): 23.7. pg/ml
IL-19 (geometric mean) serum levels (Ps0 patients; 350 mg single subcutaneous dose, Day 71): 18.0 pg/mL
IL-19 (geometric mean) serum levels (Ps0 patients; 600 mg single subcutaneous dose, Day 1 (baseline)): 57.3 pg/mL
IL-19 (geometric mean) serum levels (Ps0 patients; 600 mg single subcutaneous dose, Day 15): 30.1 pg/mL
IL-19 (geometric mean) serum levels (Ps0 patients; 600 mg single subcutaneous dose, Day 29): 21.8 pg/mL
IL-19 (geometric mean) serum levels (Ps0 patients; 600 mg single subcutaneous dose, Day 57): 14.4. pg/ml
IL-19 (geometric mean) serum levels (Ps0 patients; 600 mg single subcutaneous dose, Day 71): 15.8 pg/mL

B2: M_2: murine-derived IL-19 antibody; LC SEQ ID NO: 10, HC SEQ ID NO: 14 (antibody)
heavy: LVQLQQSDAELVKPGASLKISCKVSGYTFTDHALHWMKQRPEQGLEWIGYIYPRDGSTKYNEKFKGKATLTADRSSSTAYMELNSLTSEDSAVYFCARGWDFAMDYWGQGTSVTVSSAKTTPPSVYPLAPGSAAQTNSMVTLGCLVKGYFPEPVTVTWNSGSLSSGVHTFPAVLQSDLYTLSSSVTVPSSTWPSETVTCNVAHPASSTKVDKKIVPRDCGCKPCICTVPEVSSVFIFPPKPKDVLTITLTPKVTCVVVDISKDDPEVQFSWFVDDVEVHTAQTQPREEQFNSTFRSVSELPIMHQDWLNGKEFKCRVNSAAFPAPIEKTISKTKGRPKAPQVYTIPPPKEQMAKDKVSLTCMITDFFPEDITVEWQWNGQPAENYKNTQPIMDTDGSYFVYSKLNVQKSNWEAGNTFTCSVLHEGLHNHHTEKSLSHSPGK
light: DIVLTQSPESLAVSLGQRATISCRASESVDNYGISFIHWYQQKPGQPPKLLIYRASNLKSGIPARFSGRGSRTDFTLTINPVETDDVATYYCQQINKDPLTFGAGTKLELKRADAAPTVSIFPPSSEQLTSGGASVVCFLNNFYPKDINVKWKIDGSERQNGVLNSWTDQDSKDSTYSMSSTLTLTKDEYERHNSYTCEATHKTSTSPIVKSFNRNEC
Neutralization [1]: No
